Test results as given in patent publication US12173322B2, “Genome-edited induced pluripotent stem cells, and cells derived therefrom, and uses thereof” (priority 2020, dated 2024).

T1: ASIC1a (Homo sapiens, UniProt P78348)
T1 sequence (P78348 1-528): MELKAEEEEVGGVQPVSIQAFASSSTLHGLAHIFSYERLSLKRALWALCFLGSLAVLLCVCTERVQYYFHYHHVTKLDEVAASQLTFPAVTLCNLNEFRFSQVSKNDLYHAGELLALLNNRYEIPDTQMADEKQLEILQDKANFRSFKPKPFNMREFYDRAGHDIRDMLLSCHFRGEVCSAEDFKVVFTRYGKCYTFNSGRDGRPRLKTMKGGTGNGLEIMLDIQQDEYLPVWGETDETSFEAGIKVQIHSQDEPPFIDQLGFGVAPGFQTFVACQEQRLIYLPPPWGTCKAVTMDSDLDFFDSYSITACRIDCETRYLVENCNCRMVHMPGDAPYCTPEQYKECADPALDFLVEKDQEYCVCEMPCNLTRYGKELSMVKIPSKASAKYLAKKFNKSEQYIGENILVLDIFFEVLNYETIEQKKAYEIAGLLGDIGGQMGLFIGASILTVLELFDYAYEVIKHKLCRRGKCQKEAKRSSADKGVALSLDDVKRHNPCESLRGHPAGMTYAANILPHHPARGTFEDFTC


Tests used:
hiPSC-CMs [1] = assay: hiPSC-CM calcium analysis (FLIPR Tetra); format: cell-based, human; conditions: any evaluated concentration (1 nM - 1 μM)
Description: hiPSC-CM calcium analysis. Cardiomyocytes were replated (2×10^4 per well) in 384-well plates (CellBIND black with clear bottom, Corning) and cultured for 7 days in RPMI+B27™. On the day of the experiment, the cells were loaded for 1.5 h at 37° C. with FLIPR calcium 4 dye (Molecular Devices) diluted in HBSS pH 7.4. After loading, the plate was transferred to a FLIPR Tetra fluorescent plate reader (Molecular Devices). Calcium transients were measured with excitation wavelengths at 470-495 nm and emission at 515-575 nm. For each plate, the camera gain and intensity were adjusted to optimize signal intensity. Data for each well were expressed as normalized arbitrary fluorescence units. All data were acquired at 0.5 s per read, with baseline measurements for 45 s followed by at least 100 s of data collection after each peptide addition. Peptide solutions (in HBSS pH 7.4) were added to each well to give a final concentration of 1 nM, 10 nM, 100 nM, or 1 μM. Calcium amplitude, maximum calcium, minimum calcium, and spontaneous beating rate were analysed using ScreenWorks software (Molecular Devices) and normalized to baseline measurements.
Replated hiPSC-CMs were loaded with a fluorescent calcium dye and calcium transients were recorded before and after peptide addition.

[2] = system: Langendorff-perfused isolated mouse hearts; assay: IRI in Langendorff-perfused isolated mouse hearts
Description: IRI in Langendorff-perfused mouse hearts. […] Mice (12-14 weeks) were anesthetized via an intraperitoneal injection of 10 mg/mL ketamine and 1.6 mg/mL xylazil. The heart was excised via thoracotomy and the aorta cannulated. […] Temperature was continuously measured with thermocouple needle microprobes (SDR Scientific) and maintained at 37° C. with circulating water baths. Contractile function was measured via a fluid-filled balloon inserted in the left ventricle and connected to a pressure transducer (ADInstruments Pty Ltd.). Coronary flow was measured with an in-line Doppler flow probe positioned above the aortic cannulae (Transonic Systems Inc.). All functional data were recorded on a four-channel MacLab system (ADInstruments Pty Ltd.). Following 15-30 min of equilibration, hearts were switched to ventricular pacing at 420 beats/min (BPM) using a SD9 stimulator (Grass Instruments, Inc.). Baseline measurements were made for 10-20 min followed by 25 min of global normothermic ischemia and 45 min of reperfusion. Pacing was stopped during ischemia and resumed after 15 min of reperfusion. For peptide-treated experimental groups, 1 μM peptide solution was infused with a syringe pump (World Precision Instruments, LLC.) into the buffer, directly upstream of the cannula, at a rate of 1% of CF, for a final working concentration of 10 nM. Peptide was infused for 10 min prior to the onset of ischemia and during the first 15 min of reperfusion.

ASIC1a = molecular target: T1, ASIC1a; conditions: read-out: IC50, inhibitor of ASIC1a; cited from earlier work
hiPSC-CMs [3] = assay: In vitro ischemia/acidosis with reperfusion in hiPSC-CMs, cell death (LDH); format: cell-based, human; conditions: 10 nM; 18 h hypoxia (0.5% O2) pH 5.0, then 1 h pH 7.4 normoxia
Text: In vitro ischemia-acidosis injury model with hiPSC-CMs. Differentiated cardiomyocytes were replated on either day 15 or day 17 of differentiation for in vitro ischemia/acidosis assays. At the time of replating, a subset of cells (˜500,000) was set aside for flow cytometry analysis of cardiomyocyte purity (see supplemental methods). For all experiments, only cell preparations with >80% sarcomeric α-actinin-positive cardiomyocytes were used. After re-plating, the cells were maintained for an additional 7 days in RPMI+B27™. To prepare media for ischemia/acidosis injury, 10×HBSS without sodium bicarbonate (Sigma) was diluted to 1× concentration in sterile tissue culture-grade water. Solutions were buffered with either 12 mM HEPES (for pH 7.4 media, Sigma Aldrich) or 12 mM MES (for pH <6.5, Sigma Aldrich) and the pH adjusted accordingly with 1 M NaOH. The medium was sterile filtered with 0.22 μm syringe filters (Millipore). […] For all cell culture experiments, percent cell death was calculated using low and high controls. […]
To assess whether ASIC1a inhibition is cardioprotective in hiPSC-CMs, the inventors evaluated cell death in response to in vitro acidosis, induced by culturing hiPSC-CMs in Hank's […] (HBSS) with pH adjusted to pH 7.4, 6.0, or 5.0. […]

hiPSC-CMs [4] = assay: In vitro acidosis injury of hiPSC-CMs, cell death (LDH); format: cell-based, human; conditions: for cell death: 20 nM overnight
Text: In vitro ischemia-acidosis injury model with hiPSC-CMs. Differentiated cardiomyocytes were replated on either day 15 or day 17 of differentiation for in vitro ischemia/acidosis assays. At the time of replating, a subset of cells (˜500,000) was set aside for flow cytometry analysis of cardiomyocyte purity (see supplemental methods). For all experiments, only cell preparations with >80% sarcomeric α-actinin-positive cardiomyocytes were used. After re-plating, the cells were maintained for an additional 7 days in RPMI+B27™. To prepare media for ischemia/acidosis injury, 10×HBSS without sodium bicarbonate (Sigma) was diluted to 1× concentration in sterile tissue culture-grade water. Solutions were buffered with either 12 mM HEPES (for pH 7.4 media, Sigma Aldrich) or 12 mM MES (for pH <6.5, Sigma Aldrich) and the pH adjusted accordingly with 1 M NaOH. The medium was sterile filtered with 0.22 μm syringe filters (Millipore). […] For reperfusion experiments, the medium was replaced with HBSS pH 7.4 (with or without peptide) after overnight incubation and cultured for 1 h under normoxic conditions. […] For all cell culture experiments, percent cell death was calculated using low and high controls. For low control (LC), cardiomyocytes were cultured overnight in standard culture media (RPMI+B27™). For high control (HC), cells were cultured in RPMI+B27™ containing 1% Triton™ X-100 (Sigma-Aldrich).
To assess whether ASIC1a inhibition is cardioprotective in hiPSC-CMs, the inventors evaluated cell death in response to in vitro acidosis, induced by culturing hiPSC-CMs in Hank's […] (HBSS) with pH adjusted to pH 7.4, 6.0, or 5.0. […] To mimic ischemia/acidosis in vitro, hiPSC-CMs were incubated overnight in combined hypoxic (0.5% O2) and acidic (pH 5.0) conditions with or without peptide.

Row | Molecule | calcium amplitudes (hiPSC-CMs [1]) | spontaneous beating rate (hiPSC-CMs [1]) | EDP ([2]; after 45 min reperfusion, 10 nM peptide) [mmHg] | reactive hyperaemia during early reperfusion (increased CF) ([2]; first 5 min of reperfusion) | baseline contractile function ([2]; first 10 min of peptide infusion prior to ischemia, 10 nM) | IC50 (ASIC1a) [nM] | cell death (hiPSC-CMs [3]) | cardioprotection against cell death (LDH) (hiPSC-CMs [4]; overnight at pH 5.0, even at concentrations as low as 1 nM) | cell death (hiPSC-CMs [4]; pH 6.0) | cell death (hiPSC-CMs [4]; pH 7.4)
1 | PcTx1 | Neither Hi1a nor PcTx1 altered | Neither Hi1a nor PcTx1 altered | 33±8 | significant reactive hyperaemia | no effect | ~1 | blocked | nearly complete cardioprotection | – | –
2 | MitTx (protein) chain 1: QIRPAFCYEDPPFFQKCGAFVDSYYFNRSRITCVHFFYGQCDVNQNHFTTMSECNRVCHG chain 2: NLNQFRLMIKCTNDRVWADFVDYGCYCVARDSNTPVDDLDRCCQAQKQCYDEAVKVHGCKPLVMFYSFECRYLASDLDCSGNNTKCRNFVCNCDRTATLCILTATYNRNNHKIDPSRCQ | – | – | – | – | – | – | – | – | increased cell death | increased cell death
